How the values were obtained:
[1] = Activity of rLipC or cutinase on p-nitrophenyl esters (release of p-NP at 410 nm); format: biochemical; details: for Specific Activity, pNP-butyrate (C4): substrate pNP-butyrate (C4); for Specific Activity, pNP-butyrate (C4) / Specific Activity, pNP-caprate (C10) / Specific Activity, pNP-caprylate (C8) / Specific Activity, pNP-laurate (C12) / Specific Activity, pNP-myristate (C14) / Specific Activity, pNP-valerate (C5): 1 mM, Tris buffer pH 8.0, 300 mM NaCl, 4 mM NaTDC, 15 min; for Specific Activity, pNP-caprate (C10): substrate pNP-caprate (C10); for Specific Activity, pNP-caprylate (C8): substrate pNP-caprylate (C8); for Specific Activity, pNP-laurate (C12): substrate pNP-laurate (C12); for Specific Activity, pNP-myristate (C14): substrate pNP-myristate (C14); for Specific Activity, pNP-valerate (C5): substrate pNP-valerate (C5)
[2] = pH-stat, fluorescent and spectrophotometric assays for lipase or phospholipase activity on various lipids; format: biochemical
Source text: rLipC activity was also investigated using pH-stat, fluorescent and spectrophotometric assays for various lipids, as well as phospholipids, to detect lipase or phospholipase activity, respectively.

Molecule	Specific Activity, pNP-butyrate (C4) [1]	Specific Activity, pNP-caprate (C10) [1]	Specific Activity, pNP-caprylate (C8) [1]	Specific Activity, pNP-laurate (C12) [1]	Specific Activity, pNP-myristate (C14) [1]	Specific Activity, pNP-valerate (C5) [1]	Long-chain triglycerides (TG) hydrolysis ([2]; cloned and characterized protein, see example 1)	Activity on triglycerides, diglycerides or monoglycerides as substrate ([2]; pH-stat, fluorescent and spectrophotometric assays, whatever the carbon chain length)	Hydrolysis of esters function associated with a fatty acyl chain having more than 10 carbons ([1]; summary of Table 1)
Cutinase F. solani: cutinase from F. solani, comparison enzyme [reference compound]	382 ± 22 U · mg^−1	9 ± 1 U · mg^−1	14 ± 3 U · mg^−1	1 ± 0.4 U · mg^−1	1 ± 0.2 U · mg^−1	78 ± 0.5 U · mg^−1			
Rv0220: M. tuberculosis Lip family protein Rv0220 (LipC), recombinant; shown not to be a lipolytic enzyme (protein, UniProt P96402 1-403, looked up) Esterase LipC: MNQRRAAGSTGVAYIRWLLRARPADYMLALSVAGGSLPVVGKHLKPLGGVTAIGVWGARHASDFLSATAKDLLTPGINEVRRRDRASTQEVSVAALRGIVSPDDLAVEWPAPERTPPVCGALRHRRYVHRRRVLYGDDPAQLLDVWRRKDMPTKPAPVLIFVPGGAWVHGSRAIQGYAVLSRLAAQGWVCLSIDYRVAPHHRWPRHILDVKTAIAWARANVDKFGGDRNFIAVAGCSAGGHLSALAGLTANDPQYQAELPEGSDTSVDAVVGIYGRYDWEDRSTPERARFVDFLERVVVQRTIDRHPEVFRDASPIQRVTRNAPPFLVIHGSRDCVIPVEQARSFVERLRAVSRSQVGYLELPGAGHGFDLLDGARTGPTAHAIALFLNQVHRSRAQFAKEVI	133 × 10^−3 U · mg^−1	2 × 10^−3 U · mg^−1	22 × 10^−3 U · mg^−1	0 U · mg^−1	0 U · mg^−1	111 × 10^−3 U · mg^−1	no long-chain triglycerides (TG) hydrolysis was detected	does not show any activity	not able to hydrolyse
